Consider 1 molecule from patent publication US20220281942A1 (published 2022).

In this experiment the target is T1, CCND1 (G1/S-specific cyclin-D1) peptide on HLA-DPA1*01:03 / HLA-DPB1*04:01 (human).
T1 peptide: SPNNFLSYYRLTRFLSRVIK
Description: multimer staining.

B1: 03-CCND1219-238 (TCR, V domains shown)
Valpha: KDQVFQPSTVASSEGAVVEIFCNHSVSNAYNFFWYLHFPGCAPRLLVKGSKPSQQGRYNMTYERFSSSLLILQVREADAAVYYCAVCTLYNFNKFYFGSGTKLNVKP
Vbeta: GVTQTPKFQVLKTGQSMTLQCAQDMNHEYMSWYRQDPGMGLRLIHYSVGAGITDQGEVPNGYNVSRSTTEDFPLRLLSAAPSQTSVYFCASLTDNNEQFFGPGTRLTVL
As to B1, the binding result is “recognises”.
